Residue numbers refer to the chain shown, from its start. Each block holds one binder with its values, some of them ahead of it.
Legend:
[1] = target: T1, Affimer that binds to actin with ALFA-tag introduced (SEQ ID No: 41); assay: fluorescence polarization microscopy of HeLaM cells expressing the ALFA-tagged Affimer, detected with the anti-ALFA-tag Nanobody-cp176-172mVenus fusion
T1 construct: Expressed in HeLaM cells; also called fusion protein of Affimer and an ALFA-tag; Affimer with ALFA-tag introduced
T1 chain: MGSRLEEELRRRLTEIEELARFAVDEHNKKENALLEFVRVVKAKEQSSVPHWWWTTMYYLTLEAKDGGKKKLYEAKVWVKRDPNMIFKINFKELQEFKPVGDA
Text: Specifically, an ALFA-tag (SEQ ID No: 40) was introduced into an Affimer (SEQ ID No: 2) that binds to F-actin as a model system for verifying the above detection system, to obtain a fusion protein having the amino acid sequence set forth in SEQ ID No: 41. This fusion protein was expressed in HeLaM cells. A fusion protein of an anti-ALFA-tag Nanobody (SEQ ID No: 42) and cp176-172mVenus (SEQ ID No: 43) were brought into contact, and fluorescence polarization was observed. The fusion protein of anti-ALFA-tagged Nanobody and cp176-172mVenus was a fusion protein suitable for observation of fluorescence polarization, in which the Nanobody and the cp176-172mVenus were tightly linked (c.f. Example 5).

vimentin [2] = target: T2, vimentin (UniProt P08670 2-466, limits assumed); assay: fluorescence polarization microscopy of cells expressing the fusion protein
T2 construct: whole, on cells; Endogenous intracellular intermediate filament; also called vimentin fibers; intracellular vimentin
Text: (§1) An expression vector in which DNA encoding the fusion protein designed was placed under an appropriate promoter was introduced by a lipofection method (Avalanche-Everyday Transfection Reagent), thereby allowing HeLa cells to express the above fusion protein. The cells expressing the fusion protein were observed by fluorescence polarization microscopy.
(§2) The orientation of polarization was different from that in the previous cp-sfGFP. The cp-sfGFP of Example 5 and the cp176-172mVenus used in this example were basically the same type of fluorescent proteins but different in the position of cp.

vimentin [3] = target: T2, vimentin; assay: fluorescence polarization microscopy of HeLa cells expressing the fusion protein
Text: as §1, §2

T2 sequence (P08670 2-466 limits assumed): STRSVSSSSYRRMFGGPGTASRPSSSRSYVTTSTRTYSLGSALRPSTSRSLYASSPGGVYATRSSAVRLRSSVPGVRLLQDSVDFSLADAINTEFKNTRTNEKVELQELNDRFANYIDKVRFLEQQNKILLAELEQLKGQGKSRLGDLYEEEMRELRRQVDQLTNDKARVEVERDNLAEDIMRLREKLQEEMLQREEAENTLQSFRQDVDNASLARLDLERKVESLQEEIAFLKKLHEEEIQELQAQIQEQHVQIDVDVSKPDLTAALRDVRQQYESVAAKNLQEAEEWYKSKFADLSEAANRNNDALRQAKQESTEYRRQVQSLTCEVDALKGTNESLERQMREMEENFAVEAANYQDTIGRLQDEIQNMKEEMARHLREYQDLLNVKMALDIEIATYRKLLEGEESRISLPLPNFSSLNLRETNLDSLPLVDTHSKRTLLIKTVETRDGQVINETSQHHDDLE

binding result [1]: binds
B1: fusion protein of anti-ALFA-tag Nanobody and cp176-172mVenus (SEQ ID No: 43) (VHH)
VHH: EVQLQESGGGLVQPGGSLRLSCTASGVTISALNAMAMGWYRQAPGERRVMVAAVSERGNAMYRESVQGRFTVTRDFTNKMVSLQMDNLKPEDTAVYYCHVLEDRVDSFHDYWGQGTQVTVVQ

binding result (vimentin [2]): binds
B2: fusion protein of Nanobody that binds to vimentin and cpmTurquoise2 (SEQ ID No: 25) (VHH)
VHH: QVQLVESGGGLVQSGGSLTLTCAASGFTFSAASMRWVRQVPGKGLEWVATIDGTGANSYYSESAKGRFTISRDNARNTLRLQMNNLKPDDTAVYYCANFGRNYWGKGTQVTVVV

binding result (vimentin [3]): binds
B3: fusion protein of vimentin-binding Nanobody and cp-sfGFP (SEQ ID No: 17) (VHH)
VHH: B2 VHH
notes: Expressed inside HeLa cells; beta-sheet to beta-sheet linkage; also called fusion protein of cp-sfGFP and Nanobody

binding result (vimentin [3]): binds
B4: fusion protein of Nanobody that binds to vimentin and cp176-172mVenus (SEQ ID No: 31) (VHH)
VHH: B2 VHH
notes: Expressed inside HeLa cells

binding result (vimentin [3]): binds
B5: fusion protein of vimentin-binding Nanobody and mApple (SEQ ID No: 19) (VHH)
VHH: B2 VHH with V113M, V114A
notes: Expressed inside HeLa cells; also called fusion protein of mApple and Nanobody

binding result (vimentin [2]): binds
B6: fusion protein of Nanobody that binds to vimentin and cpmVenus (SEQ ID No: 26) (VHH)
VHH: B2 VHH

Source: patent publication US20220155309A1 (NATIONAL UNIVERSITY CORPORATION TOKYO MEDICAL AND DENTAL …, published 2022)
